Measurements reported in the supplement of paper PMC6757056.
± gives the standard deviation of the averaged measurements.

B1: library; a variant is named by its letters at N, in order (parent)
chain: GCUGUCACCGGUGUAUUACCCUAGUGGUCGACCGGUCUGAUGAGUCUNNNNNNAGACGAAACAGC

Legend:
hypoxanthine [1] = variants of: B1; assay: normalized RNA/DNA level with ligand (relative to sTRSVctl = 100) (log10 (% of sTRSVctl)); ligand: hypoxanthine (xanthine aptamer); higher = less ribozyme self-cleavage, higher mRNA level; conditions: ligand concentration (+) RNA-Seq: 5 mM, HEK293T, reporter: mCherry (pCS4076), ligand present: yes
In short: (§1)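 HEK293T cells were transfected with library plasmids carrying ribozyme switches linked to an mCherry reporter, or an eGFP reporter in some ligand experiments, at 4 µg per well of a 6-well plate, with any ligand added 1 h beforehand. After 72 h, total RNA was extracted with EDTA, reverse-transcribed, amplified, barcoded and sequenced. RNA level was defined as RNA reads over DNA reads, normalized to a spiked-in non-cleaving sequence or to the top-ranked sequences. That value was multiplied by 100 and converted to log10, the top set was 25 sequences, and only sequences with ≥100 DNA reads were retained.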

hypoxanthine [2] = variants of: B1; assay: normalized RNA/DNA level without ligand (relative to sTRSVctl = 100) (log10 (% of sTRSVctl)); ligand: hypoxanthine (xanthine aptamer); higher = less ribozyme self-cleavage, higher mRNA level; conditions: HEK293T, reporter: mCherry (pCS4076), ligand present: no
In short: as §1

| Variant | normalized RNA/DNA level with ligand (log10) (hypoxanthine [1]) | normalized RNA/DNA level without ligand (log10) (hypoxanthine [2]) |
| --- | --- | --- |
| AGAACU | 1.96 ± 0.035 | 1.83 ± 0.022 |
| CGAAGU | 1.93 ± 0.022 | 1.86 ± 0.046 |
| CGAAGC | 1.948 ± 0.0063 | 1.811 ± 0.012 |
| UCUACG | 1.9 ± 0.07 | 1.733 ± 0.011 |
| UCUACA | 1.94 ± 0.057 | 1.846 ± 0.017 |
| UCUACC | 1.96 ± 0.029 | 1.913 ± 0.0037 |
| UCUACU | 1.97 ± 0.067 | 1.917 ± 0.014 |
| AGAAUA | 1.92 ± 0.012 | 1.77 ± 0.03 |
| AGAAUC | 1.94 ± 0.086 | 1.91 ± 0.048 |
| AGAAUU | 1.926 ± 0.017 | 1.86 ± 0.025 |
| GGAAGU | 1.91 ± 0.047 | 1.7 ± 0.02 |
| GCUUGC | 1.96 ± 0.033 | 1.87 ± 0.048 |
| GCUUGU | 1.93 ± 0.0067 | 1.72 ± 0.023 |
| UGAAAG | 1.862 ± 0.017 | 1.72 ± 0.039 |
| UGAAAU | 1.907 ± 0.005 | 1.76 ± 0.005 |
| UGAAAA | 1.921 ± 0.0047 | 1.836 ± 0.015 |
| GCUCAC | 1.94 ± 0.08 | 1.84 ± 0.053 |
| GCUCAU | 1.95 ± 0.026 | 1.801 ± 0.018 |
| GCUCAG | 1.86 ± 0.019 | 1.31 ± 0.057 |
| GCGUUC | 1.93 ± 0.059 | 1.58 ± 0.11 |

| Variant | normalized RNA/DNA level with ligand (log10) (hypoxanthine [1]) | normalized RNA/DNA level without ligand (log10) (hypoxanthine [2]) |
| --- | --- | --- |
| GCGUUU | 1.965 ± 0.002 | 1.74 ± 0.11 |
| GCUAGC | 1.89 ± 0.1 | 1.79 ± 0.079 |
| GCUAGU | 1.92 ± 0.11 | 1.722 ± 0.0072 |
| GCUAGG | 1.83 ± 0.039 | 1.48 ± 0.02 |
| GCUAGA | 1.92 ± 0.031 | 1.71 ± 0.029 |
| CCUCGU | 1.98 ± 0.026 | 1.87 ± 0.031 |
| CCUCGC | 1.92 ± 0.054 | 1.92 ± 0.029 |
| CCUCAA | 1.929 ± 0.0046 | 1.84 ± 0.025 |
| CCUCAC | 1.99 ± 0.027 | 2.07 ± 0.14 |
| CCUCAU | 1.97 ± 0.078 | 1.87 ± 0.02 |
| GCUAUC | 1.966 ± 0.016 | 1.84 ± 0.058 |
| GCUAUA | 1.93 ± 0.03 | 1.89 ± 0.034 |
| ACUACC | 2 ± 0.03 | 1.9024 ± 0.00086 |
| ACUACA | 1.92 ± 0.0088 | 1.841 ± 0.014 |
| GCUUUU | 1.96 ± 0.011 | 1.831 ± 0.01 |
| CCGUGC | 1.9 ± 0.057 | 1.54 ± 0.08 |
| CCUGUU | 2.04 ± 0.05 | 1.9 ± 0.14 |
| CCUGUC | 1.989 ± 0.006 | 1.987 ± 0.018 |
| CGAACA | 1.94 ± 0.011 | 1.76 ± 0.015 |
| CGAACU | 1.93 ± 0.056 | 1.79 ± 0.018 |

| Variant | normalized RNA/DNA level with ligand (log10) (hypoxanthine [1]) | normalized RNA/DNA level without ligand (log10) (hypoxanthine [2]) |
| --- | --- | --- |
| CGAACG | 1.96 ± 0.038 | 1.8 ± 0.035 |
| UCGUGU | 1.82 ± 0.059 | 1.33 ± 0.041 |
| CCUCCU | 1.95 ± 0.074 | 1.96 ± 0.026 |
| CCUCCA | 1.94 ± 0.026 | 1.95 ± 0.067 |
| CCUUCG | 1.88 ± 0.035 | 1.876 ± 0.0072 |
| CCUUCA | 1.97 ± 0.074 | 1.91 ± 0.04 |
| CCUUCC | 1.99 ± 0.033 | 1.963 ± 0.016 |
| CCUUCU | 1.98 ± 0.08 | 1.95 ± 0.048 |
| GCUCGU | 1.96 ± 0.042 | 1.83 ± 0.048 |
| UCUGUU | 1.98 ± 0.035 | 1.88 ± 0.034 |
| UCUGUC | 1.96 ± 0.0083 | 1.956 ± 0.011 |
| UCUGUA | 1.95 ± 0.024 | 1.8296 ± 0.0016 |
| CGAAUC | 1.98 ± 0.028 | 1.96 ± 0.042 |
| CGAAUU | 1.95 ± 0.046 | 1.807 ± 0.00086 |
| CGAAUG | 1.913 ± 0.003 | 1.883 ± 0.008 |
| GCUCUU | 1.97 ± 0.052 | 1.91 ± 0.037 |
| GCUCUC | 1.98 ± 0.021 | 1.89 ± 0.079 |
| GCUCUA | 1.941 ± 0.0064 | 1.79 ± 0.035 |
